B1: humanized anti-TfR Fab 3M12 VH4/Vκ3 (Fab, V domains shown)
VH: QVQLQESGPGLVKPSQTLSLTCTVTGYSITSGYYWNWIRQPPGKGLEWIGYITFDGANNYNPSLKNRVSISRDTSKNQFSLKLSSVTAEDTATYYCTRSSYDYDVLDYWGQGTTVTVSS
VL: DIQMTQSPSSLSASVGDRVTITCRASQDISNFLNWYQQKPGQPVKLLIYYTSRLHSGVPSRFSGSGSGTDFTLTISSLQPEDFATYYCQQGHTLPYTFGQGTKLEIKR
notes: also called 3M12 (VH4/Vk3); 3M12 VH4/VK3
B2: humanized anti-TfR Fab 3A4 VH3/Vκ4 conjugated to DMPK-targeting oligonucleotide ASO300 (Fab, V domains shown)
VH: EVQLVQSGSELKKPGASVKVSCTASGFNIKDDYMYWVRQPPGKGLEWIGWIDPENGDTEYASKFQDRVTVTADTSTNTAYMELSSLRSEDTAVYYCTLWLRRGLDYWGQGTLVTVSS
VL: DIVMTQSPLSLPVTPGEPASISCRSSKSLLHSNGYTYLFWFQQRPGQSPRLLIYRMSNLASGVPDRFSGSGSGTDFTLKISRVEAEDVGVYYCMQHLEYPFTFGGGTKVEIKR
modifications: DMPK-targeting oligonucleotide ASO300 conjugated to the Fab; chain and residue not stated for this example
notes: The oligonucleotide may sit on either chain; also called 3A4 (VH3/Vk4) conjugate; DMPK oligo conjugate

What was measured:
recombinant mouse TfR1 = recombinant mouse TfR1 (mouse, UniProt Q62351 89-763); assay: ELISA, plates precoated with recombinant TfR1
recombinant mouse TfR1, sequence (Q62351 89-763 limits assumed): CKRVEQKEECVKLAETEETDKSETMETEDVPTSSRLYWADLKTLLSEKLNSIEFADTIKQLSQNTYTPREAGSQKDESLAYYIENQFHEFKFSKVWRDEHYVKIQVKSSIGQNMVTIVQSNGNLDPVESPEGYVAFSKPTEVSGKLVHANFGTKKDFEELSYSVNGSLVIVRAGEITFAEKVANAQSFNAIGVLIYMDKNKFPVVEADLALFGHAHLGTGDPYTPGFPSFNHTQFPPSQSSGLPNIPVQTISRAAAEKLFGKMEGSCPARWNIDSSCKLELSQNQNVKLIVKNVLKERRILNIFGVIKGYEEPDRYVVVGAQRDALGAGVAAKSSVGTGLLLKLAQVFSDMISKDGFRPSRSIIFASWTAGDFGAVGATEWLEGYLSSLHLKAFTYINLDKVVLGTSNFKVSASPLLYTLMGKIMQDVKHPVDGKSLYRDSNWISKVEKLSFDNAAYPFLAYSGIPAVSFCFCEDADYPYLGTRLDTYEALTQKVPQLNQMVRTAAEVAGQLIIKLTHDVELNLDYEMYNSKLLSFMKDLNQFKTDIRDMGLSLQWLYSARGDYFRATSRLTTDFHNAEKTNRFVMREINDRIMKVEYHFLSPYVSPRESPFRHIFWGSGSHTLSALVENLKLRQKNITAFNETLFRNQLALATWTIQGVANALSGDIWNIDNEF
Method: (§1) Serial dilutions of the Fab were added to plates precoated with recombinant human, cynomolgus monkey, mouse, or rat TfR1. After a short incubation, binding of the Fab was quantified by addition of a fluorescently tagged anti-(H+L) IgG secondary antibody and measurement of fluorescence intensity at 495 nm excitation and 520 nm emission.

recombinant rat TfR1 = recombinant rat TfR1 (rat, UniProt Q99376 89-761, limits assumed); assay: ELISA, plates precoated with recombinant TfR1
recombinant rat TfR1, sequence (Q99376 89-761 limits assumed): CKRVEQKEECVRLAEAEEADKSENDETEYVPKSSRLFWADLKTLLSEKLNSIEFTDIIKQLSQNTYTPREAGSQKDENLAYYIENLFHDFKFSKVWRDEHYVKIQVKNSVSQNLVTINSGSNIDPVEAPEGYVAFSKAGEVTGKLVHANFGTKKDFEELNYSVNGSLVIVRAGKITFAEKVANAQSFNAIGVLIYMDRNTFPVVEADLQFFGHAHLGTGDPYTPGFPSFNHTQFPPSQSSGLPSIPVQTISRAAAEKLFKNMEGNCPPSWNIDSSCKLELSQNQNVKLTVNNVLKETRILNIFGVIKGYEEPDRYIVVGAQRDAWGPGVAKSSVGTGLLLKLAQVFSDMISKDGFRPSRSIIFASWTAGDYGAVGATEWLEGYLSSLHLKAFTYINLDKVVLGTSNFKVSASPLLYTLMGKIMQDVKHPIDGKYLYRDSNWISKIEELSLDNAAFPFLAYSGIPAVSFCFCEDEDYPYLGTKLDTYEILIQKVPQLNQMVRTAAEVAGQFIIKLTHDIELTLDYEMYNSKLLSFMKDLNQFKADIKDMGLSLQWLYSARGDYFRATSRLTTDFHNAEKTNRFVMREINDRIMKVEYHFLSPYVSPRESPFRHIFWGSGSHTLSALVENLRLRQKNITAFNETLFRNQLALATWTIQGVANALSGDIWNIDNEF
Method: as §1

recombinant human TfR2 = target: T1, recombinant human TfR2 (human, UniProt Q9UP52 105-801, limits assumed); assay: SPR
T1 construct: also called hTfR2; transferrin receptor 2
T1 sequence (looked up): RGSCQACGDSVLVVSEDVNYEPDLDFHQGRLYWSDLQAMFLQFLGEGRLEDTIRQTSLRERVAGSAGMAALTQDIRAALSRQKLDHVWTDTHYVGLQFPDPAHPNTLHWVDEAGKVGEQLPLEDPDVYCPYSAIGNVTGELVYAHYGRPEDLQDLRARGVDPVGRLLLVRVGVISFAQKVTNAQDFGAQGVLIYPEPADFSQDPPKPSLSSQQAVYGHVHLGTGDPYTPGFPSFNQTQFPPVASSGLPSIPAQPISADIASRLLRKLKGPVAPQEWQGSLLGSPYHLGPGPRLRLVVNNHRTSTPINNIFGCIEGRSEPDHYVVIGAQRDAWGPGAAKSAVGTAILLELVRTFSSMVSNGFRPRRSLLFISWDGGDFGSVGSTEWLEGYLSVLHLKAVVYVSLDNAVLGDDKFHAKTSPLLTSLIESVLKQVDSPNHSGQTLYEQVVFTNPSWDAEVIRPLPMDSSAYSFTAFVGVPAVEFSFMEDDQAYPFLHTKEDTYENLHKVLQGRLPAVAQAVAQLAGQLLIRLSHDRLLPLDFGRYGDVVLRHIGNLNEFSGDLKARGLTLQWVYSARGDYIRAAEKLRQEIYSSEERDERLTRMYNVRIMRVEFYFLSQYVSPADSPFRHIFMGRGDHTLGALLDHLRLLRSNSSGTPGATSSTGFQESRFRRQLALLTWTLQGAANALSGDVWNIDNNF

recombinant human TfR1 = target: T2, recombinant human TfR1 (human, UniProt P02786 89-760); assay: printed: DMPK oligo conjugate binding to hTfR1
T2 construct: also called hTfR1; huTfR1
T2 sequence (P02786 89-760 limits assumed): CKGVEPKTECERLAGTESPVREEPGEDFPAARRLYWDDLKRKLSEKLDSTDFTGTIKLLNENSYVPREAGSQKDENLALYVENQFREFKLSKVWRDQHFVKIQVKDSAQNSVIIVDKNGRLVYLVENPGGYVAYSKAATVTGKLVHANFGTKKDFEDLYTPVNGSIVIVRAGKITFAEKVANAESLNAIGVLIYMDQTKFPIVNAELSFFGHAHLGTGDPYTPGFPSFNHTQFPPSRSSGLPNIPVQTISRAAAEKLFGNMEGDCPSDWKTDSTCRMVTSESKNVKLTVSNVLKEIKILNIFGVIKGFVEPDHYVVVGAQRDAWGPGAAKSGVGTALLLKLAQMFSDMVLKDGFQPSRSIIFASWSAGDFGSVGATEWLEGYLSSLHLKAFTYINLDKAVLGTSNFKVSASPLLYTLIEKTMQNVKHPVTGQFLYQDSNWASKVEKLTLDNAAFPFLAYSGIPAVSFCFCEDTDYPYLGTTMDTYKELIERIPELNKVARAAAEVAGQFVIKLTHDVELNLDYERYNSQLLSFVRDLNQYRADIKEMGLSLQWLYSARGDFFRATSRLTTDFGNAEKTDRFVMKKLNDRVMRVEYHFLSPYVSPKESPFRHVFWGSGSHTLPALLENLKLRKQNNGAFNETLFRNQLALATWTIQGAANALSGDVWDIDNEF

Binder	binding result (recombinant mouse TfR1)	binding result (recombinant rat TfR1)	binding result (recombinant human TfR2)	EC50 (recombinant human TfR1) [nM]
B1	no binding	no binding	no binding	–
B2	–	–	–	2.84

Source: patent US20230346967A1 (published 2023)
